Like-named read-outs stand apart in the source and are kept apart here.
T1: 2C-121-270aa小肽段 #4 (CVA10病毒 (coxsackievirus A10))
T1 peptide: SLATGIIARAIADKY

T2: 2C-121-270aa小肽段 #3 (CVA10病毒 (coxsackievirus A10))
T2 peptide: PGTGKSLATGIIARA

B1: M3-8单克隆抗体 (M3-8 mAb) (antibody, V domains shown)
VH: QVQLQQSGAELVRPGASVKLSCKALGYTFADNEMHWVKQTPVHGLEWIGGIHPGSGGTAYNQKFKGKATLTADKSSSTAYMELSSLTSEDSAVYYCTRDYYWYDEGFDYWGQGTTLTVSS
VL: DIVMTQTPLSLPVSLGDQASISCRSSQSLVHSNGNTYLHWYLQKPGQSPELLIYKVSNRFSGVPDRFSGSGSGTDFTLKISRVEAEDLGVYFCSQSTHIPLTFGAGTKLELK
notes: also called M3-8细胞上清; 纯化的单克隆抗体(M3-8 mAb)
B2: M3-8重组抗体 (antibody, V domains shown)
VH: B1 VH
VL: B1 VL
notes: also called M3-8 mAb重组抗体

How the values were obtained:
CVB3病毒2C蛋白 [1] = biological target: T3, CVB3病毒2C蛋白 (CVB3, UniProt P03313 1101-1429)
T3 construct: domain: 2C蛋白

2C-121-270aa小肽段 #4 = biological target: T1, 2C-121-270aa小肽段 #4; assay: ELISA on coated synthetic peptides
2C-121-270aa小肽段 #3 = biological target: T2, 2C-121-270aa小肽段 #3; assay: ELISA on coated synthetic peptides
2C-121-270aa肽段 = biological target: T4, 2C-121-270aa肽段 (CVA10病毒 (coxsackievirus A10)); assay: western blot on truncated 2C fragments expressed in 293T cells
T4 construct: Expressed in 293T cells from pcDNA6.0 and detected with a Flag antibody, so it carries a Flag tag

CVA10病毒2C蛋白 = biological target: T5, CVA10病毒2C蛋白 (CVA10病毒 (coxsackievirus A10), UniProt Q65900 1112-1440); assay: western blot on virus-infected RD cells
T5 construct: In ELISA it was purified 2C protein from prokaryotic expression, coated on the plate; In western blot, immunofluorescence and flow cytometry it was the 2C protein made in CVA10-infected RD cells (intracellular); also called CVA10-2C

CVB3病毒2C蛋白 [2] = biological target: T3, CVB3病毒2C蛋白; remark: listed apart in the source

| Binder | binding result (CVB3病毒2C蛋白 [1]) | binding result (2C-121-270aa小肽段 #4) | binding result (2C-121-270aa小肽段 #3) | binding result (2C-121-270aa肽段) | binding result (CVA10病毒2C蛋白) | binding result (CVB3病毒2C蛋白 [2]) |
| --- | --- | --- | --- | --- | --- | --- |
| B1 | no binding | binds | binds | binds | – | – |
| B2 | – | – | – | – | binds | no binding |
